Series [1] deals with the molecule itself. Description: electron microscopy of lipid monolayers.
Series [2] concerns the molecule itself. Description: negative-stain electron microscopy.
Series [3] concerns the molecule itself. In words: electron microscopy of lipid monolayers. The source holds these as a separate data set.
Series [4] deals with the molecule itself. In words: electron microscopy of lipid monolayers. The source holds these as a separate data set.
The target in a further series is T1, Cdc12 (S. cerevisiae, UniProt P32468 1-407).
T1 sequence (looked up): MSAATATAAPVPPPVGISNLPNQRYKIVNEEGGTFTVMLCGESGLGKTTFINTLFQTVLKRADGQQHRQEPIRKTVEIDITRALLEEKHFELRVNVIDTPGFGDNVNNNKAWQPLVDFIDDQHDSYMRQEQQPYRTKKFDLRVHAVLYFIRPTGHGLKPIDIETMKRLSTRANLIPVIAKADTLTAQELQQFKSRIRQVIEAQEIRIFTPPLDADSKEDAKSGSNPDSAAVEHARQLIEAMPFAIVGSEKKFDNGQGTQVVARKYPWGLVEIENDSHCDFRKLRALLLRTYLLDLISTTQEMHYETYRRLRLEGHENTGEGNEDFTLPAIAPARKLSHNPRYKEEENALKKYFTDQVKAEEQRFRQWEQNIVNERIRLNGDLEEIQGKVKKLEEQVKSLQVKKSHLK
In words: negative-stain electron microscopy.

The values below come from article PMC3005623 (Journal of molecular biology, 2010).

Residue numbers refer to the chain shown, from its start. Names and notes keep the numbering of the source. Read-outs that look alike come from different tables or passages of the source.

B1: Cdc12–(His)6-Cdc3–Cdc10–Cdc11(Δ306–415) complex (complex, S. cerevisiae)
chain 1: T1 sequence (looked up)
chain 2: MSLKEEQVSIKQDPEQEERQHDQFNDVQIKQESQDHDGVDSQYTNGTQNDDSERFEAAESDVKVEPGLGMGITSSQSEKGQVLPDQPEIKFIRRQINGYVGFANLPKQWHRRSIKNGFSFNLLCVGPDGIGKTTLMKTLFNNDDIEANLVKDYEEELANDQEEEEGQGEGHENQSQEQRHKVKIKSYESVIEENGVKLNLNVIDTEGFGDFLNNDQKSWDPIIKEIDSRFDQYLDAENKINRHSINDKRIHACLYFIEPTGHYLKPLDLKFMQSVYEKCNLIPVIAKSDILTDEEILSFKKTIMNQLIQSNIELFKPPIYSNDDAENSHLSERLFSSLPYAVIGSNDIVENYSGNQVRGRSYPWGVIEVDNDNHSDFNLLKNLLIKQFMEELKERTSKILYENYRSSKLAKLGIKQDNSVFKEFDPISKQQEEKTLHEAKLAKLEIEMKTVFQQKVSEKEKKLQKSETELFARHKEMKEKLTKQLKALEDKKKQLELSINSASPNVNHSPVPTKKKGFLR
chain 3: MDPLSSVQPASYVGFDTITNQIEHRLLKKGFQFNIMVVGQSGLGKSTLINTLFASHLIDSATGDDISALPVTKTTEMKISTHTLVEDRVRLNINVIDTPGFGDFIDNSKAWEPIVKYIKEQHSQYLRKELTAQRERFITDTRVHAILYFLQPNGKELSRLDVEALKRLTEIANVIPVIGKSDTLTLDERTEFRELIQNEFEKYNFKIYPYDSEELTDEELELNRSVRSIIPFAVVGSENEIEINGETFRGRKTRWSAINVEDINQCDFVYLREFLIRTHLQDLIETTSYIHYEGFRARQLIALKENANSRSSAHMSSNAIQR
chain 4: MSGIIDASSALRKRKHLKRGITFTVMIVGQSGSGRSTFINTLCGQQVVDTSTTILLPTDTSTEIDLQLREETVELEDDEGVKIQLNIIDTPGFGDSLDNSPSFEIISDYIRHQYDEILLEESRVRRNPRFKDGRVHCCLYLINPTGHGLKEIDVEFIRQLGSLVNIIPVISKSDSLTRDELKLNKKLIMEDIDRWNLPIYNFPFDEDEISDEDYETNMYLRTLLPFAIIGSNEVYEMGGDVGTIRGRKYPWGILDVEDSSISDFVILRNALLISHLHDLKNYTHEILYERYRTEALSGESVAAES
For the molecule B1, in series [1], the binding result is given as “binds”.

B2: Cdc3–Cdc11–(His)6–Cdc12-Cdc10(H24A R25A K28A K29A) complex (complex, S. cerevisiae)
chain 1: B1 chain 2
chain 2: MSGIIDASSALRKRKHLKRGITFTVMIVGQSGSGRSTFINTLCGQQVVDTSTTILLPTDTSTEIDLQLREETVELEDDEGVKIQLNIIDTPGFGDSLDNSPSFEIISDYIRHQYDEILLEESRVRRNPRFKDGRVHCCLYLINPTGHGLKEIDVEFIRQLGSLVNIIPVISKSDSLTRDELKLNKKLIMEDIDRWNLPIYNFPFDEDEISDEDYETNMYLRTLLPFAIIGSNEVYEMGGDVGTIRGRKYPWGILDVEDSSISDFVILRNALLISHLHDLKNYTHEILYERYRTEALSGESVAAESIRPNLTKLNGSSSSSTTTRRNTNPFKQSNNINNDVLNPASDMHGQSTGENNETYMTREEQIRLEEERLKAFEERVQQELLLKRQELLQREKELREIEARLEKEAKIKQEE
chain 3: T1 sequence (looked up)
chain 4: B1 chain 3 with H24A, R25A, K28A, K29A
For the molecule B2, the “percent of particles that are heptamers” value in series [2] turned out to be 14.2%.

B3: Cdc3(G261V) (natural protein, S. cerevisiae, UniProt P32457 1-520, looked up)
chain: B1 chain 2 with G261V
Regarding B3, the binding result in series [3] is on record as “binds”.

B4: Cdc3–Cdc11–(His)6–Cdc12-Cdc10(I22E) complex (complex, S. cerevisiae)
chain 1: B1 chain 2
chain 2: B2 chain 2
chain 3: T1 sequence (looked up)
chain 4: B1 chain 3 with I22E
B4: the “percent of particles that are heptamers” value in series [2] worked out at 24.9%.

B5: (His)6–Cdc12-Cdc10-Cdc3 complex (complex, S. cerevisiae)
chain 1: T1 sequence (looked up)
chain 2: B1 chain 3
chain 3: B1 chain 2
With B5, in series [4], the binding result is reported as “binds”.

B6: (His)6–Cdc12-Cdc11-Cdc3(G261V) complex (complex, S. cerevisiae)
chain 1: T1 sequence (looked up)
chain 2: B2 chain 2
chain 3: B1 chain 2 with G261V
Turning to B6, the binding result in series [3] is listed as “binds”.

B7: Cdc11(Δ2–18) (natural protein, S. cerevisiae, UniProt P32458 1-415, looked up)
chain: MRGITFTVMIVGQSGSGRSTFINTLCGQQVVDTSTTILLPTDTSTEIDLQLREETVELEDDEGVKIQLNIIDTPGFGDSLDNSPSFEIISDYIRHQYDEILLEESRVRRNPRFKDGRVHCCLYLINPTGHGLKEIDVEFIRQLGSLVNIIPVISKSDSLTRDELKLNKKLIMEDIDRWNLPIYNFPFDEDEISDEDYETNMYLRTLLPFAIIGSNEVYEMGGDVGTIRGRKYPWGILDVEDSSISDFVILRNALLISHLHDLKNYTHEILYERYRTEALSGESVAAESIRPNLTKLNGSSSSSTTTRRNTNPFKQSNNINNDVLNPASDMHGQSTGENNETYMTREEQIRLEEERLKAFEERVQQELLLKRQELLQREKELREIEARLEKEAKIKQEE
Turning to B7, the “percent of particles that are heptamers” value with Cdc12 came out at 5.4%.
